Experimental data from the array DNA melting data of Ke et al..

Experiment: melting temperature; melt of duplexes
Details: sodium 0.0675 M; strand 1 µM
Substance “CGACGTGCGTTATGTGCTG+CAGCACATTAGGCACGTCG ((((((((.(.((((((((+)))))))).).))))))))” has a Tm of 52.2 °C. Work on “CGACGTGCGACATGTGCTG+CAGCACATCATGCACGTCG ((((((((...((((((((+))))))))...))))))))” yielded a Tm of 49.1 °C. In the case of “CGACGTGCCTGATGTGCTG+CAGCACATGGTGCACGTCG ((((((((...((((((((+))))))))...))))))))”, the Tm is reported as 47.4 °C. With “CGACGTGCAGTATGTGCTG+CAGCACATTGGGCACGTCG ((((((((...((((((((+))))))))...))))))))” the Tm was 48.8 °C. In the case of “CGACGTGCGCAATGTGCTG+CAGCACATCTGGCACGTCG ((((((((...((((((((+))))))))...))))))))”, the Tm is reported as 49.8 °C. For “CGACGTGCCCTATGTGCTG+CAGCACATGAAGCACGTCG ((((((((...((((((((+))))))))...))))))))”, the Tm was 49 °C. “CGACGTGCGGCATGTGCTG+CAGCACATCATGCACGTCG ((((((((...((((((((+))))))))...))))))))” showed a Tm of 51.2 °C. “CGACGTGCGTGATGTGCTG+CAGCACATACCGCACGTCG (((((((((..((((((((+))))))))..)))))))))” showed a Tm of 55.3 °C. “CGACGTGCAATATGTGCTG+CAGCACATGTCGCACGTCG ((((((((.(.((((((((+)))))))).).))))))))” showed a Tm of 51.5 °C. Work on “CGACGTGCGCGATGTGCTG+CAGCACATCCGGCACGTCG ((((((((..(((((((((+)))))))))..))))))))” yielded a Tm of 55 °C. In the case of “CGACGTGCCTCATGTGCTG+CAGCACATATGGCACGTCG (((((((((..((((((((+))))))))..)))))))))”, the Tm is reported as 54 °C. Substance “CGACGTGCTTAATGTGCTG+CAGCACATCGGGCACGTCG ((((((((...((((((((+))))))))...))))))))” has a Tm of 49.1 °C. In the case of “CGACGTGCTAGATGTGCTG+CAGCACATCAAGCACGTCG (((((((((.(((((((((+))))))))).)))))))))”, the Tm is reported as 57.5 °C. With “CGACGTGCCTGATGTGCTG+CAGCACATCGAGCACGTCG ((((((((..(((((((((+)))))))))..))))))))” the Tm was 55.3 °C. For “CGACGTGCATAATGTGCTG+CAGCACATGTAGCACGTCG ((((((((...((((((((+))))))))...))))))))”, the Tm was 52.6 °C. Work on “CGACGTGCACGATGTGCTG+CAGCACATTAAGCACGTCG ((((((((...((((((((+))))))))...))))))))” yielded a Tm of 46.5 °C. With “CGACGTGCAGGATGTGCTG+CAGCACATCTAGCACGTCG ((((((((..(((((((((+)))))))))..))))))))” the Tm was 56 °C. For “CGACGTGCAGAATGTGCTG+CAGCACATCTTGCACGTCG (((((((((..((((((((+))))))))..)))))))))”, the Tm was 52.3 °C. For “CGACGTGCAGAATGTGCTG+CAGCACATCCGGCACGTCG ((((((((.(.((((((((+)))))))).).))))))))”, the Tm was 52.7 °C. With “CGACGTGCCTAATGTGCTG+CAGCACATTAGGCACGTCG (((((((((((((((((((+)))))))))))))))))))” the Tm was 63.6 °C. “CGACGTGCGGGATGTGCTG+CAGCACATAACGCACGTCG (((((((((..((((((((+))))))))..)))))))))” showed a Tm of 59.4 °C. “CGACGTGCGGAATGTGCTG+CAGCACATTGGGCACGTCG ((((((((..(((((((((+)))))))))..))))))))” showed a Tm of 53.5 °C. With “CGACGTGCTATATGTGCTG+CAGCACATGGTGCACGTCG ((((((((...((((((((+))))))))...))))))))” the Tm was 47.7 °C. “CGACGTGCTGAATGTGCTG+CAGCACATTGAGCACGTCG (((((((((.(((((((((+))))))))).)))))))))” gave a Tm of 56.6 °C. “CGACGTGCCACATGTGCTG+CAGCACATCTTGCACGTCG ((((((((.(.((((((((+)))))))).).))))))))” gave a Tm of 47.5 °C. For “CGACGTGCCCGATGTGCTG+CAGCACATACAGCACGTCG ((((((((...((((((((+))))))))...))))))))”, the Tm was 49.1 °C. With “CGACGTGCGCGATGTGCTG+CAGCACATCCCGCACGTCG (((((((((.(((((((((+))))))))).)))))))))” the Tm was 59.2 °C. Substance “CGACGTGCCATATGTGCTG+CAGCACATTATGCACGTCG ((((((((...((((((((+))))))))...))))))))” has a Tm of 50.3 °C. For “CGACGTGCTACATGTGCTG+CAGCACATCTGGCACGTCG ((((((((.(.((((((((+)))))))).).))))))))”, the Tm was 49.9 °C. In the case of “CGACGTGCATTATGTGCTG+CAGCACATTCGGCACGTCG ((((((((...((((((((+))))))))...))))))))”, the Tm is reported as 48.5 °C. In the case of “CGACGTGCCGGATGTGCTG+CAGCACATCATGCACGTCG ((((((((..(((((((((+)))))))))..))))))))”, the Tm is reported as 54.8 °C. For “CGACGTGCCACATGTGCTG+CAGCACATCAGGCACGTCG (((((((((..((((((((+))))))))..)))))))))”, the Tm was 53.2 °C. “CGACGTGCGTAATGTGCTG+CAGCACATACAGCACGTCG ((((((((...((((((((+))))))))...))))))))” gave a Tm of 54 °C. Substance “CGACGTGCAGCATGTGCTG+CAGCACATATTGCACGTCG (((((((((..((((((((+))))))))..)))))))))” has a Tm of 49.1 °C. Substance “CGACGTGCATAATGTGCTG+CAGCACATGTGGCACGTCG ((((((((...((((((((+))))))))...))))))))” has a Tm of 51 °C. In the case of “CGACGTGCCGCATGTGCTG+CAGCACATGACGCACGTCG ((((((((..(((((((((+)))))))))..))))))))”, the Tm is reported as 51.2 °C. Work on “CGACGTGCGATATGTGCTG+CAGCACATCTTGCACGTCG ((((((((.(.((((((((+)))))))).).))))))))” yielded a Tm of 51.2 °C. “CGACGTGCCGTATGTGCTG+CAGCACATCAGGCACGTCG (((((((((..((((((((+))))))))..)))))))))” gave a Tm of 57.1 °C. “CGACGTGCTAGATGTGCTG+CAGCACATTAAGCACGTCG (((((((((..((((((((+))))))))..)))))))))” gave a Tm of 53.3 °C. Substance “CGACGTGCATTATGTGCTG+CAGCACATGCTGCACGTCG (((((((((..((((((((+))))))))..)))))))))” has a Tm of 49 °C. For “CGACGTGCTATATGTGCTG+CAGCACATACCGCACGTCG ((((((((..(((((((((+)))))))))..))))))))”, the Tm was 49.3 °C. “CGACGTGCGTGATGTGCTG+CAGCACATTCGGCACGTCG ((((((((...((((((((+))))))))...))))))))” gave a Tm of 51.5 °C. With “CGACGTGCCGGATGTGCTG+CAGCACATATCGCACGTCG ((((((((...((((((((+))))))))...))))))))” the Tm was 49.7 °C. Work on “CGACGTGCTGTATGTGCTG+CAGCACATCTTGCACGTCG ((((((((...((((((((+))))))))...))))))))” yielded a Tm of 49.9 °C. For “CGACGTGCATTATGTGCTG+CAGCACATCGTGCACGTCG (((((((((..((((((((+))))))))..)))))))))”, the Tm was 47.3 °C. “CGACGTGCCGTATGTGCTG+CAGCACATGGCGCACGTCG ((((((((...((((((((+))))))))...))))))))” showed a Tm of 50.3 °C. “CGACGTGCGAGATGTGCTG+CAGCACATATGGCACGTCG ((((((((.(.((((((((+)))))))).).))))))))” showed a Tm of 53.3 °C. In the case of “CGACGTGCTTCATGTGCTG+CAGCACATAAGGCACGTCG ((((((((.(.((((((((+)))))))).).))))))))”, the Tm is reported as 50.6 °C. “CGACGTGCCTGATGTGCTG+CAGCACATGGGGCACGTCG (((((((((..((((((((+))))))))..)))))))))” showed a Tm of 56.4 °C. In the case of “CGACGTGCGTAATGTGCTG+CAGCACATGTTGCACGTCG ((((((((...((((((((+))))))))...))))))))”, the Tm is reported as 51.7 °C. Substance “CGACGTGCAACATGTGCTG+CAGCACATAGTGCACGTCG (((((((((..((((((((+))))))))..)))))))))” has a Tm of 48.9 °C. For “CGACGTGCCTCATGTGCTG+CAGCACATCATGCACGTCG ((((((((.(.((((((((+)))))))).).))))))))”, the Tm was 47.2 °C. In the case of “CGACGTGCCGAATGTGCTG+CAGCACATGCAGCACGTCG ((((((((.(.((((((((+)))))))).).))))))))”, the Tm is reported as 52.6 °C. For “CGACGTGCGTCATGTGCTG+CAGCACATCAAGCACGTCG ((((((((.(.((((((((+)))))))).).))))))))”, the Tm was 52.6 °C. For “CGACGTGCTCGATGTGCTG+CAGCACATCGGGCACGTCG ((((((((.((((((((((+)))))))))).))))))))”, the Tm was 62.2 °C. Substance “CGACGTGCCGGATGTGCTG+CAGCACATAACGCACGTCG ((((((((...((((((((+))))))))...))))))))” has a Tm of 50 °C. “CGACGTGCCATATGTGCTG+CAGCACATGGAGCACGTCG ((((((((...((((((((+))))))))...))))))))” showed a Tm of 51.5 °C. “CGACGTGCGTAATGTGCTG+CAGCACATGACGCACGTCG ((((((((((.((((((((+)))))))).))))))))))” gave a Tm of 58 °C. “CGACGTGCTTAATGTGCTG+CAGCACATCAGGCACGTCG ((((((((.(.((((((((+)))))))).).))))))))” showed a Tm of 50.8 °C. “CGACGTGCAACATGTGCTG+CAGCACATACAGCACGTCG ((((((((...((((((((+))))))))...))))))))” showed a Tm of 47.9 °C. Substance “CGACGTGCTCCATGTGCTG+CAGCACATGGAGCACGTCG (((((((((((((((((((+)))))))))))))))))))” has a Tm of 66.1 °C. Work on “CGACGTGCACGATGTGCTG+CAGCACATTTGGCACGTCG ((((((((...((((((((+))))))))...))))))))” yielded a Tm of 46.8 °C. “CGACGTGCTCGATGTGCTG+CAGCACATACTGCACGTCG ((((((((...((((((((+))))))))...))))))))” gave a Tm of 49 °C. “CGACGTGCACCATGTGCTG+CAGCACATTGCGCACGTCG ((((((((.(.((((((((+)))))))).).))))))))” gave a Tm of 46.9 °C. Work on “CGACGTGCTCTATGTGCTG+CAGCACATCCGGCACGTCG ((((((((...((((((((+))))))))...))))))))” yielded a Tm of 48.4 °C. With “CGACGTGCCGTATGTGCTG+CAGCACATCACGCACGTCG ((((((((...((((((((+))))))))...))))))))” the Tm was 51.2 °C. For “CGACGTGCTCAATGTGCTG+CAGCACATTGGGCACGTCG ((((((((.((((((((((+)))))))))).))))))))”, the Tm was 60.1 °C. “CGACGTGCAGCATGTGCTG+CAGCACATTGTGCACGTCG (((((((((..((((((((+))))))))..)))))))))” gave a Tm of 44.8 °C. For “CGACGTGCGATATGTGCTG+CAGCACATAAGGCACGTCG ((((((((..(((((((((+)))))))))..))))))))”, the Tm was 52 °C. Substance “CGACGTGCCTAATGTGCTG+CAGCACATTGCGCACGTCG ((((((((..(((((((((+)))))))))..))))))))” has a Tm of 51 °C. For “CGACGTGCGCAATGTGCTG+CAGCACATAATGCACGTCG ((((((((...((((((((+))))))))...))))))))”, the Tm was 50.5 °C. Substance “CGACGTGCTATATGTGCTG+CAGCACATCGAGCACGTCG (((((((((..((((((((+))))))))..)))))))))” has a Tm of 51.5 °C.
